This is an account of results in paper doi:10.1101/857136, “Structural characterization of an intermediate reveals a unified mechanism for the CLC Cl^−/H^+ transport cycle” (bioRxiv, 2019).

This series deals with the molecule itself. As to the kind of experiment: crystal structure; lipidic cubic phase (monoolein with 10% cholesterol), without any antibody Fab fragment; 16 °C; 100 mM Tris pH 8.5, 100 mM sodium malonate, 30% PEG 400, 2.5% MPD; 2.6 Å.

B1: CLC-ec1 QQQ mutant (E148Q/E203Q/E113Q) (natural protein)
chain: MKTDTPSLETPQAARLRRRQLIRQLLERDKTPLAILFMAAVVGTLVGLAAVAFDKGVAWLQNQRMGALVHTADNYPLLLTVAFLCSAVLAMFGYFLVRKYAPEAGGSGIPEIQGALEDQRPVRWWRVLPVKFFGGLGTLGGGMVLGRQGPTVQIGGNIGRMVLDIFRLKGDEARHTLLATGAAAGLAAAFNAPLAGILFIIEQMRPQFRYTLISIKAVFIGVIMSTIMYRIFNHEVALIDVGKLSDAPLNTLWLYLILGIIFGIFGPIFNKWVLGMQDLLHRVHGGNITKWVLMGGAIGGLCGLLGFVAPATSGGGFNLIPIATAGNFSMGMLVFIFVARVITTLLCFSSGAPGGIFAPMLALGTVLGTAFGMVAVELFPQYHLEAGTFAIAGMGALLAASIRAPLTGIILVLEMTDNYQLILPMIITGLGATLLAQFTGGKPLYSAILARTLAKQEAEQLARSK
notes: CLC-ec1, prokaryotic CLC Cl-/H+ exchange transporter, with glutamines in place of Gluex (E148), Gluin (E203) and E113; The final crystallographic model holds all residues except those of helix A (no density); PDB 1ots is the wild-type parent used as search model; also called QQQ protein
With B1, the binding result is “binds”.
